Measured values published in article PMC7523099.

What was measured:
[1] = target: SARS-CoV-1 RBD-5GS-1TD0 (SARS-CoV-1 | not stated); assay: SDS-PAGE
[2] = target: SARS-CoV-2 RBD-5GS-1TD0 (SARS-CoV-2 | not stated) (UniProt P0DTC2); assay: SDS-PAGE

Row | Substance | stoichiometry N [1] | stoichiometry N [2]
1 | SARS-CoV-1 RBD-5GS-1TD0 (domain or fragment) | 3 | –
2 | SARS-CoV-2 RBD-5GS-1TD0 (from UniProt P0DTC2 330-532) (domain or fragment) | – | 3
